Measurements: patent US20060147922

Tested on: chk2, endogenous (HEK 293 and MCF-7 cell extracts)
Sequence (chain, as listed by the source): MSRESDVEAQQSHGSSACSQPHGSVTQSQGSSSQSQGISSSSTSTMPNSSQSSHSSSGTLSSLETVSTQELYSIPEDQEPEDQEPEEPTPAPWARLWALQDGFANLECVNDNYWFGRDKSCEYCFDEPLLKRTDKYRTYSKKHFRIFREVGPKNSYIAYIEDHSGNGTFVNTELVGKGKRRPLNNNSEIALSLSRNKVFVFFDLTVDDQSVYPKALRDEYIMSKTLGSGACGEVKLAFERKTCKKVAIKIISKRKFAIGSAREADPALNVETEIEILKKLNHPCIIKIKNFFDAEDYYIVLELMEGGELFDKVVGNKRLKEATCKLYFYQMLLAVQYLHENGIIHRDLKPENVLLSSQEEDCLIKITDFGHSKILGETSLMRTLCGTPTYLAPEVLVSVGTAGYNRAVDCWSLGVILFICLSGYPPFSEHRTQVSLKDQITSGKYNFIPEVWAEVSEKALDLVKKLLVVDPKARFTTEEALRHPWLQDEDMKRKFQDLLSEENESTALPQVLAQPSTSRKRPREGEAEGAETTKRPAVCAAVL

Substance: EDD protein, full length (aa 1-2799)
- CHK2 kinase activity towards a GST-cdc25C substrate post-IR in the presence and absence of EDD: activation of CHK2 was delayed in cells lacking EDD and these cells were impaired in their ability to reach maximal CHK2 kinase activity
- DNA damage-induced phosphorylation of CHK2 on T68 after EDD depletion by RNA interference: considerably diminished compared to control cells
